The target in this assay is T1, muCDH19(44-770) with Flag tag (construct I, Mu EC1-5) (mouse).
T1 construct: leader left out; the entry starts at residue 44; also called Mo EC1-5; mouse Cadherin19
T1 chain: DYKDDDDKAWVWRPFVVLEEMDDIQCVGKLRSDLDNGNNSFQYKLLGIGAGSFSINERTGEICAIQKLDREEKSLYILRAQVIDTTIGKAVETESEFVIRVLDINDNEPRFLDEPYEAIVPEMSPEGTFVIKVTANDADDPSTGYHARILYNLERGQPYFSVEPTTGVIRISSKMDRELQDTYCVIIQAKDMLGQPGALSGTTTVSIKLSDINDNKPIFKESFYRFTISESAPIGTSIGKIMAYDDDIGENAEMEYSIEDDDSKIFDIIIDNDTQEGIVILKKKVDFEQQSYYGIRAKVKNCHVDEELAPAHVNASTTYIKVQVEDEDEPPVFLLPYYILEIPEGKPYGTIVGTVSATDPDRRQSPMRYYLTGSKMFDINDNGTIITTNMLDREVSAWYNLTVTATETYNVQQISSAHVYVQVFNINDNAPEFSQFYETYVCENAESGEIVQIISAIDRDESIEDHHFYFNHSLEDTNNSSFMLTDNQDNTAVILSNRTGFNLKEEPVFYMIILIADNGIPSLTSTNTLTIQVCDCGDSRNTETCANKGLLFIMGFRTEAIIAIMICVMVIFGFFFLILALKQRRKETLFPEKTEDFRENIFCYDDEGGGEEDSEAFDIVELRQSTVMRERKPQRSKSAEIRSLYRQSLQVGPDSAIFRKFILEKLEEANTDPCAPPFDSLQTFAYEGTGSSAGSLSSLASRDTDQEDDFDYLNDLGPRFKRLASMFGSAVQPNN
Briefly: flow cytometry, transfected 293T cells. For orientation: Flow cytometry measures light scatter and fluorescence of single cells or particles in a stream.

From US20220127354A1 (Amgen, published 2022) come the findings set out here.

Excerpt: The experiment included assaying the anti-CDH19 antibodies against mouse Cadherin19 to determine suitability for binning on these human/mouse chimeras.

B1: anti-CDH19 antibody 2G6 (Ab ID 13588) (antibody, human IgG1, lambda, V domains shown)
VH: QVQLVESGGGVVQPGRSLRLSCAASGFTFSSYGMHWVRQAPGKGLEWVAFIWYDGSNKYYADSVKDRFTISRDNSKNTLYLQMKSLRAEDTAVYYCARRAGIIGTIGYYYGMDVWGQGTTVTVSS
VL: SYELTQPPSVSVSPGQTASITCSGDRLGEKYTCWYQQRPGQSPLLVIYQDTKRPSGIPERFSGSNSGNTATLTISGTQAMDEADYYCQAWDSSTVVFGGGTKLTVLG
notes: Bin 4
With B1, the binding result is “binds”.
